The values below come from article PMC9436803.

The target of test [1] is Human IgG1 Fc (residues 216–447) (human). Briefly: SPR; Biacore T200; IgG1 Fc amine-coupled to a CM5 chip (1 μg/ml); CD16a 0.01-20.48 μM flowed at 10 μl/min; 20 mM MOPS, 100 mM sodium chloride, 1 μM bovine serum albumin, 0.05% P20, pH 7.4; dissociation constants from equilibrium responses; at least five measurements. In general terms: SPR reads the build-up and loss of mass on a sensor chip optically.

Test [2] shares this target. Briefly: SPR; Biacore T200; IgG1 Fc amine-coupled to a CM5 chip (0.33 μg/ml); CD16a 0.04-5.12 μM flowed at 60 μl/min, contact 30 s, dissociation 250 s; 20 mM MOPS, 100 mM sodium chloride, 0.05% P20, pH 7.4, no bovine serum albumin; two-state kinetic model.

“CD16a F158 S164A, lacking the N162 glycan (receptor)” gave a Kd in test [1] of 1470 nM. This lies in the single-digit micromolar range.

Turning to “CD16a V158 S164A with complex-type N-glycans, lacking the N162 glycan (receptor)”, in test [2], the Kd was found to be 109 nM; the ka1 (two-state model, major event) amounted to 1.4e+06 M⁻¹ s⁻¹; the ka2 (two-state model, minor event) was 0.0014 s⁻¹; the kd1 (two-state model, major event) turned out to be 0.18 s⁻¹. The same substance came in with a kd2 (two-state model, minor event) in test [2] of 0.0078 s⁻¹. This substance yielded a Kd in test [1] of 230 nM.

On to “Fc γ receptor IIIa/CD16a F158 allotype with oligomannose (Man5GlcNAc2) N-glycans (from UniProt P08637 17-254)”, for which the Kd in test [1] was determined as 1070 nM. That is a single-digit micromolar value.

In test [2], “Fc γ receptor IIIa/CD16a F158 allotype with truncated (1)GlcNAc N-glycans (from UniProt P08637 17-254)” yielded a Kd of 52 nM; a ka1 (two-state model, major event) of 1.1e+06 M⁻¹ s⁻¹; a ka2 (two-state model, minor event) of 0.0018 s⁻¹; a kd1 (two-state model, major event) of 0.079 s⁻¹. The kd2 (two-state model, minor event) in test [2] worked out at 0.005 s⁻¹. In addition, the Kd in test [1] was found to be 126 nM.

With “Fc γ receptor IIIa/CD16a V158 allotype with complex-type N-glycans”, in test [2], the dissociation constant (Kd) turned out to be 76 nM; the ka1 (two-state model, major event) was 170000 M⁻¹ s⁻¹; the ka2 (two-state model, minor event) stood at 0.0061 s⁻¹; the kd1 (two-state model, major event) is 0.025 s⁻¹. This substance also had a kd2 (two-state model, minor event) in test [2] of 0.0066 s⁻¹. The same substance yielded a Kd in test [1] of 270 nM.

In test [2], “Fc γ receptor IIIa/CD16a V158 allotype with oligomannose (Man5GlcNAc2) N-glycans” had a Kd of 55 nM; a ka1 (two-state model, major event) of 710000 M⁻¹ s⁻¹; a ka2 (two-state model, minor event) of 0.0049 s⁻¹; a kd1 (two-state model, major event) of 0.071 s⁻¹. In test [2], this substance came in with a kd2 (two-state model, minor event) of 0.006 s⁻¹. In addition, the dissociation constant (Kd) in test [1] worked out at 86 nM.

In test [2], “Fc γ receptor IIIa/CD16a V158 allotype with truncated (1)GlcNAc N-glycans” yielded a Kd of 9.2 nM; a ka1 (two-state model, major event) of 2.5e+06 M⁻¹ s⁻¹; a ka2 (two-state model, minor event) of 0.0032 s⁻¹; a kd1 (two-state model, major event) of 0.04 s⁻¹. Moreover, the kd2 (two-state model, minor event) in test [2] was determined as 0.0047 s⁻¹. The equilibrium dissociation constant (Kd) in test [1] stood at 22 nM.

What is called Kd is the free concentration of one partner at which half of the binding sites on the other are occupied at equilibrium, for simple one-to-one binding. Higher therefore signals weaker binding.
